Results on 1 substance are retold here after article PMC5895705.

The target in this assay is Glucose-6-phosphate dehydrogenase aggregates formed at 50 °C (UniProt P11411). The assay can be described thus: co-sedimentation; as a1 but ClpB homo- or heterohexamers (5 μM) with G6PDH50 aggregates in the absence of DnaK.
Chain of Glucose-6-phosphate dehydrogenase aggregates formed at 50 °C (P11411 whole entry): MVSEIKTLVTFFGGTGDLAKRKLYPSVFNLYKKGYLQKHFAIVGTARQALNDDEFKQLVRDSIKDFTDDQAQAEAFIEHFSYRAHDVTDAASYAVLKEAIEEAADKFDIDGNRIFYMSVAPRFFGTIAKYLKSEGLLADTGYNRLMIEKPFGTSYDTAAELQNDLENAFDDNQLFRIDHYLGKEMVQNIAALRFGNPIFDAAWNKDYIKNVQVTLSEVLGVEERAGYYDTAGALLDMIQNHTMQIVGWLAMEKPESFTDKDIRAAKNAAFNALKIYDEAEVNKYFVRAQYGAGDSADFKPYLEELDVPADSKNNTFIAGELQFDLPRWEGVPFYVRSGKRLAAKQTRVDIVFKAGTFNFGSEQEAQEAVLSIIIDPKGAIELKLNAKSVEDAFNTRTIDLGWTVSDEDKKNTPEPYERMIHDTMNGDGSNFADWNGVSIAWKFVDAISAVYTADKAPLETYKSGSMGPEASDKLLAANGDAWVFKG

As to “ClpB_(E279A/E678A) (from UniProt P63284 1-857) (natural protein)”, the fold binding relative to wt ClpB (in the absence of DnaK) was found to be 4 fold.
